# From US20250215100A1 (HARBOUR BIOMED SHANGHAI, published 2025)
# Read-outs that look alike come from different tables or passages of the source.
# What was measured:
# human CD40 on cells [1] = target: T1, human CD40 on cells (human, UniProt P25942 21-277); assay: cell-based or functional assay
# human CD40 on cells [2] = target: T1, human CD40 on cells; assay: FACS, inhibition of human CD40L-his binding to CHO-K1/hCD40 cells
# Procedure: To detect the effect of CD40 antibodies on the binding of CD40 to CD40L, CHO-K1/hCD40 cells were plated at 2×10⁵/well or 100 μL/well into a 96-well plate (Corning, #3799) and centrifuged, and the supernatant was taken and the dilution solution of the antigen binding protein to be tested was added at 50 μL/well with an initial concentration of 500 nM, 5-fold concentration dilution and a total of 8 concentrations. 20 μg/mL of human CD40L-his protein (Sino biological, #10239-H08E) was added at 50 μL/well, the cells were incubated at 4° C. for 1 hour and then washed 3 times with FACS buffer (1×PBS with 2% FBS). 1:400 diluted anti-histidine tag secondary antibody (GenScript, #A01800) was added, and the cells were incubated at 4° C. for 1 hour, then washed 2 times with FACS buffer, and resuspended in pre-chilled PBS. The fluorescence signal values were read using a BD FACS CANTOII flow cytometer or ACEA NovoCyte flow cytometer, and the data were processed and analyzed using FlowJo v10 software (FlowJo, LLC).
# Data processing and graphical analysis were performed using GraphPad Prism 8 software. The curve of the antibody concentration-dependent inhibition rate and parameters, such as IC50 value were obtained by four-parameter nonlinear fitting.
# human CD40 protein = target: T2, human CD40 protein (human, UniProt P25942 21-193, limits assumed); assay: BLI (Octet Red 96e), antibody captured on AHC sensor, human CD40 protein in solution, 1:1 global fit
# T2 construct: the construct is not described
# Procedure: To detect the affinity of CD40 antibodies for antigens such as human CD40 protein, the binding kinetics between antigen and antibody was analyzed using an Octet Red 96e (Fortebio) molecular interaction analyzer by biolayer interferometry (BLI) technique.
# For determining the affinity of antibodies for antigens, the rotary speed of the sensor was set at 1000 rpm. […] The AHC sensors were finally regenerated by immersing in a 10 mM glycine-hydrochloric acid solution with pH 1.5 to elute the protein bound to the sensors.
# For data analysis using Octet Data Analysis software (Fortebio, version 11.0), 0 nM well was used as the reference well, reference subtraction was performed, “1:1 Global fitting” method was selected for data fitting, the kinetic parameters of the binding of the antigen to the CD40 antibodies were calculated, and the kon (1/Ms) value, kdis (1/s) value and KD (M) value were obtained.
# human CD40 on cells [3] = target: T1, human CD40 on cells; assay: FACS, CHO-K1/hCD40 cells
# Source text: (§1) Flow cytometry (FACS) was used to detect the binding ability of the CD40 antibody to cells, such as, CHO-K1/hCD40 highly expressing human CD40 (constructed by Beijing Kyinno Biotechnology), CHO-K1/cyCD40 highly expressing cynomolgus monkey CD40 (constructed by Beijing Kyinno Biotechnology) and lymphoma cell highly expressing human CD40, Raji (ATCC, #CCL-86). Specifically, the cells were digested and resuspended with complete medium (F-12K for CHO-K1 cells; and RPMI-1640 for Raji cells); and the cells were adjusted to a cell density of 1×10⁶ cells/mL. The cells were seeded in a 96-well V-bottom plate (Corning, #3894) at 100 μL/well, and the antigen binding protein to be tested at 2x final concentration was then added at 100 μL/well and mixed evenly, with the highest final concentration of the antigen binding protein of 300 nM, a total of 8 concentrations, and 5-fold concentration gradient dilution. hIgG (Crownbio, #C0002) was used as a negative control, and the positive control molecule was the molecule in Table 1-5. The cells were incubated at 4° C. for 1 hours in the dark. After the incubation, the cells were rinsed twice by adding pre-chilled PBS at 100 μL/well, and centrifuged at 500 g at 4° C. for 5 minutes, and the supernatant was discarded. Then, a fluorescent secondary antibody (goat anti-human IgG (H+L) secondary antibody, Alexa Fluor® 488 conjugate, Invitrogen, #A11013, 1:1000 dilution) was added at 100 µL/well, and the cells were incubated at 4° C. for 30 minutes in the dark. The cells were washed twice with pre-chilled PBS at 200 μL/well, and centrifuged at 500 g at 4° C. for 5 minutes, and the supernatant was discarded. Finally, the cells were resuspended in pre-chilled PBS at 200 μL/well. The fluorescence signal values were read using a BD FACS CANTOII flow cytometer or ACEA NovoCyte flow cytometer, and the data were processed and analyzed using FlowJo v10 software (FlowJo, LLC).
# (§2) Data processing and graphical analysis were performed using GraphPad Prism 8 software. The binding curve of the antibody to the target cell and parameters, such as EC50 value were obtained by four-parameter nonlinear fitting.
# human CD40 on cells [4] = target: T1, human CD40 on cells; assay: FACS, Raji cells
# Source text: as §1, §2
# [5] = target: T3, cynomolgus monkey CD40 on cells (cynomolgus monkey, UniProt G7PG38 21-278); assay: FACS, CHO-K1/cyCD40 cells
# T3 construct: also called cyCD40; CHO-K1/cyCD40
# Source text: as §1, §2
# human CD40 on cells [6] = target: T1, human CD40 on cells; assay: cell-based or functional assay; remark: listed apart in the source
# T2 sequence (P25942 21-193 limits assumed): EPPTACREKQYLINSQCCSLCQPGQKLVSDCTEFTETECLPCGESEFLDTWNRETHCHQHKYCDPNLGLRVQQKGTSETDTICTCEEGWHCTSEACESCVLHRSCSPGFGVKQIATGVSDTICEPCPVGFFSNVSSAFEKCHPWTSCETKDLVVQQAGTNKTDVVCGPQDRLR
# T3 sequence (G7PG38 entry or part of it limits assumed): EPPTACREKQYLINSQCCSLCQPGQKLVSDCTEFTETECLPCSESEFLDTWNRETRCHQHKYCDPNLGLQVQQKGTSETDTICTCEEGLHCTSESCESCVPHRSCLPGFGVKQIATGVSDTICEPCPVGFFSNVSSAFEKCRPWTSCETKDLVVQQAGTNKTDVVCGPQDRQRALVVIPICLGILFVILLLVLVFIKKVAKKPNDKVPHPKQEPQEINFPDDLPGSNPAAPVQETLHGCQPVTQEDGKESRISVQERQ
# T1 sequence (P25942 21-277): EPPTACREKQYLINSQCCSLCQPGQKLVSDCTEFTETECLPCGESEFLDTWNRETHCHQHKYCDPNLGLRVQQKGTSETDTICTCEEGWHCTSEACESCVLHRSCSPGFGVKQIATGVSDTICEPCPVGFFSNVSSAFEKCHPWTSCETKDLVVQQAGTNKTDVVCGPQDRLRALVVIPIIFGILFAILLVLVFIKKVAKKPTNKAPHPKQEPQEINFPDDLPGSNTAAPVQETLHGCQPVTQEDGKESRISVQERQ
Binder,"EC50 (nM), crosslinked (CHO-K1/hCD32B), HEK293-hCD40-NFkB reporter (human CD40 on cells [1]) [nM]","EC50 (nM), uncrosslinked, HEK293-hCD40-NFkB reporter (human CD40 on cells [1]) [nM]","Maximum RLU, crosslinked (CHO-K1/hCD32B), HEK293-hCD40-NFkB reporter (human CD40 on cells [1]) [RLU]","Maximum RLU, uncrosslinked, HEK293-hCD40-NFkB reporter (human CD40 on cells [1]) [RLU]",RLU fold (crosslinked/uncrosslinked) (human CD40 on cells [1]) [fold],IC50 (human CD40 on cells [2]) [nM],Kd (human CD40 protein) [nM],koff (human CD40 protein) [s⁻¹],kon (human CD40 protein) [M⁻¹ s⁻¹],EC50 (human CD40 on cells [3]) [nM],Maximum MFI (human CD40 on cells [3]) [MFI],EC50 (human CD40 on cells [4]) [nM],Maximum MFI (human CD40 on cells [4]) [MFI],EC50 [5] [nM],Maximum MFI [5] [MFI],"EC50 (nM), crosslinked, HEK293-hCD40-NFkB reporter (human CD40 on cells [6]) [nM]","EC50 (nM), uncrosslinked, HEK293-hCD40-NFkB reporter (human CD40 on cells [6]) [nM]",Fold (EC50 in the absence of crosslinking/EC50 in the presence of crosslinking) (human CD40 on cells [6]) [fold],"Maximum fold (fold), crosslinked (human CD40 on cells [6]) [fold]","Maximum fold (fold), uncrosslinked (human CD40 on cells [6]) [fold]",also measured
"PR003379 (antibody, human IgG2, kappa, Fully human recombinant IgG2, kappa light chain; from Harbour H2L2 mice; also called 18C4A12-1B1 (clone No.)) heavy: QVQLVQSGAEVKKPGASVKVSCKASGYTFAGYYMYWVRQAPGQGLEWMGWINPDSGAPTYAQKFQGRVTMTRDTSISTAYMELSRLRSDDTAVYYCAREKIYYGSGNYYPSFDYWGQGTLVTVSSASTKGPSVFPLAPCSRSTSESTAALGCLVKDYFPEPVTVSWNSGALTSGVHTFPAVLQSSGLYSLSSVVTVPSSNFGTQTYTCNVDHKPSNTKVDKTVERKCCVECPPCPAPPVAGPSVFLFPPKPKDTLMISRTPEVTCVVVDVSHEDPEVQFNWYVDGVEVHNAKTKPREEQFNSTFRVVSVLTVVHQDWLNGKEYKCKVSNKGLPAPIEKTISKTKGQPREPQVYTLPPSREEMTKNQVSLTCLVKGFYPSDIAVEWESNGQPENNYKTTPPMLDSDGSFFLYSKLTVDKSRWQQGNVFSCSVMHEALHNHYTQKSLSLSPGK light: DIQLTQSPSFLSASVGDRVTITCRASQGISSYLAWYQQKPGKAPKLLIYAASTLQSGVPSRFSGSGSGTEFTLTISSLQPEDFATYYCQQLNSYPWTFGQGTKVEIKRTVAAPSVFIFPPSDEQLKSGTASVVCLLNNFYPREAKVQWKVDNALQSGNSQESVTEQDSKDSTYSLSSTLTLSKADYEKHKVYACEVTHQGLSSPVTKSFNRGEC",0.178,0.369,19700,8250,2.38,17,0.138,0.000144,1.04e+06,6.34,81600,0.0699,3700,3.88,117000,,,,,,Maximum inhibition rate (%) (human CD40 on cells [2]): 41.9%
"PR001028 (Selicrelumab) (antibody, human IgG2, kappa, V domains shown, CD40 positive control antibody) VH: not shown VL: DIQMTQSPSSVSASVGDRVTITCRASQGIYSWLAWYQQKPGKAPNLLIYTASTLQSGVPSRFSGSGSGTDFTLTISSLQPEDFATYYCQQANIFPLTFGGGTKVEIKR",0.0413,0.163,17000,13400,1.28,,4.5,0.00048,107000,10.3,85000,0.484,2450,5.97,106000,,,,,,
"PR006510 (antibody, human IgG1, kappa, V domains shown, PR003379 variant L:S93R; human IgG1 L234A, L235A, G237A) VH: QVQLVQSGAEVKKPGASVKVSCKASGYTFAGYYMYWVRQAPGQGLEWMGWINPDSGAPTYAQKFQGRVTMTRDTSISTAYMELSRLRSDDTAVYYCAREKIYYGSGNYYPSFDYWGQGTLVTVSS VL: DIQLTQSPSFLSASVGDRVTITCRASQGISSYLAWYQQKPGKAPKLLIYAASTLQSGVPSRFSGSGSGTEFTLTISSLQPEDFATYYCQQLNRYPWTFGQGTKVEIKR",,,,,,,,,,4.98,83000,0.376,12400,4.55,44300,0.0423,0.125,2.96,4.66,4.54,
"PR006511 (antibody, human IgG1, kappa, V domains shown, PR003379 variant L:S93N; human IgG1 L234A, L235A, G237A) VH: QVQLVQSGAEVKKPGASVKVSCKASGYTFAGYYMYWVRQAPGQGLEWMGWINPDSGAPTYAQKFQGRVTMTRDTSISTAYMELSRLRSDDTAVYYCAREKIYYGSGNYYPSFDYWGQGTLVTVSS VL: DIQLTQSPSFLSASVGDRVTITCRASQGISSYLAWYQQKPGKAPKLLIYAASTLQSGVPSRFSGSGSGTEFTLTISSLQPEDFATYYCQQLNNYPWTFGQGTKVEIKR",,,,,,,,,,4.99,79400,0.386,11800,3.68,40300,0.16,0.815,5.1,5.19,4.5,
"PR006515 (antibody, human IgG1, kappa, V domains shown, PR003379 variant L:S93M; human IgG1 L234A, L235A, G237A) VH: QVQLVQSGAEVKKPGASVKVSCKASGYTFAGYYMYWVRQAPGQGLEWMGWINPDSGAPTYAQKFQGRVTMTRDTSISTAYMELSRLRSDDTAVYYCAREKIYYGSGNYYPSFDYWGQGTLVTVSS VL: DIQLTQSPSFLSASVGDRVTITCRASQGISSYLAWYQQKPGKAPKLLIYAASTLQSGVPSRFSGSGSGTEFTLTISSLQPEDFATYYCQQLNMYPWTFGQGTKVEIKR",,,,,,,,,,4.59,86300,0.322,8900,3.75,50600,0.0669,0.268,4.01,4.91,4.54,
"PR001304 (APX005M) (antibody, human IgG1, kappa, CD40 positive control antibody) heavy: not shown light: DIQMTQSPSSLSASVGDRVTIKCQASQSISSRLAWYQQKPGKPPKLLIYRASTLASGVPSRFSGSGSGTDFTLTISSLQPEDVATYYCQCTGYGISWPIGGGTKVEIKRTVAAPSVFIFPPSDEQLKSGTASVVCLLNNFYPREAKVQWKVDNALQSGNSQESVTEQDSKDSTYSLSSTLTLSKADYEKHKVYACEVTHQGLSSPVTKSFNRGEC",0.042,0.355,23200,11900,1.95,10,7.14,0.00264,369000,,,,,,,,,,,,Maximum inhibition rate (%) (human CD40 on cells [2]): 26%
